In patent US8518892B2, “Methods to treat symptoms of pathophysiology related to body mass” (Board of Supervisors of Louisiana State University and …, priority 2005, dated 2013):

Legend:
KKAy mice = assay: Enho 1 ip for 3 days in KKAy mice (Examples 16-18); type: in vivo, mouse
Procedure: (§1) The effect of Enho-1 upon weight loss was tested over the course of 3 days using KKAy mice. The mice were fed Breeder Chow (Purina 5015) and were approximately 12-14 weeks of age at the start of the experiment. Six control mice received vehicle only while six test mice each received doses of either 900 nmol/kg/d or 9000 nmol/kg/d. The injections were given as 3 intraperitoneal (ip) injections at 0600, 1400 and 2000 h on days 1 and 2; over the 3 day period, the mice received a total of 7 injections. All animals were euthanized 5 hours after the last injection given the morning of the third day. Food was removed after the final injection.
as §1, with “insulin and glucose” for “weight loss”, “while five or” for “while”, “nmol/kg/d, respectively.” for “nmol/kg/d.”, “ip” for “intraperitoneal (ip)”, “injection. The HOMA-IR for each treatment was calculated using the following formula: ((glucose mg/dL÷18)×(insulin ng/ml×25.05))÷22.5” for “injection.”
as §1, with “liver weight, liver lipid content and liver TG” for “weight loss”, “while five or” for “while”, “nmol/kg/d, respectively.” for “nmol/kg/d.”, “ip” for “intraperitoneal (ip)”

obese (ob/ob) mice = assay: Enho 1 ip for 8 days in obese (ob/ob) mice, serum lipids (Example 22); type: in vivo, mouse
Procedure: The effect of Enho-1 upon liver serum lipid content was tested over the course of 8 days using obese (ob/ob) mice. The mice were fed Research Diets 12450 and were approximately 9-10 weeks of age at the start of the experiment. Control mice received vehicle only while test mice each received doses of either 90 nmol/kg/d, 900 nmol/kg/d or 9000 nmol/kg/d. The injections were given as 3 ip injections at 0800, 1200 and 1600 h for 7 days. On day 8, the mice were given the 0800 h injection and were sacrificed 1-3 h later, at which time blood samples were taken.
Blood glucose levels were measured using an Accu-Chek glucometer. Insulin levels were measured by ELISA (Mercodia Mouse Insulin ELISA, ALPCO) while triglycerides were measured using a Triglyceride L-Type TG H kit (Wako Diagnostics).

[1] = 900 nmol/kg/d ip, listed as Enho-1
[2] = 9000 nmol/kg/d ip, listed as Enho-1
[3] = 90 nmol/kg/d ip, listed as Enho-1

B1: Enho 1: human Enho 1, a 76 amino acid peptide having the sequence SEQ ID NO: 14 (peptide, listed as Homo sapiens)
chain: MGAAISQGALIAIVCNGLVGFLLLLLWVILCWACHSRSADVDSLSESSPNSSPGPCPEKAPPPQKPSHEGSYLLQP
- Blood glucose (KKAy mice; 900 nmol/kg/d ip): 474 mg/dL
- HOMA-IR (KKAy mice; 900 nmol/kg/d ip): 167
- HOMA-IR decrease as compared to the control group (KKAy mice; 900 nmol/kg/d ip): 29%
- Insulin (KKAy mice; 900 nmol/kg/d ip): 5.7 ng/mL
- Liver TG (KKAy mice; 900 nmol/kg/d ip): 40 mg/g
- Liver TG total (KKAy mice; 900 nmol/kg/d ip): 66 mg/g
- Liver lipid (KKAy mice; 900 nmol/kg/d ip): 82 mg/g
- Liver lipid total (KKAy mice; 900 nmol/kg/d ip): 137 mg/g
- Liver weight (KKAy mice; 900 nmol/kg/d ip): 1.6 g
- Liver weight % body weight (KKAy mice; 900 nmol/kg/d ip): 5.0%
- Weight (pre-treatment) (KKAy mice; 900 nmol/kg/d ip): 35.3 g
- Weight (termination) (KKAy mice; 900 nmol/kg/d ip): 33.0 g
- blood glucose levels decrease (KKAy mice; 900 nmol/kg/d ip): approximately 10%
- insulin levels reduction (KKAy mice; 900 nmol/kg/d ip): about 22%
- liver TG reduction as compared to the control group (KKAy mice; 900 nmol/kg/d ip): 32%
- Blood glucose (KKAy mice; [1]): 474 ± 29 mg/dL
- HOMA-IR (KKAy mice; [1]): 167 ± 18
- HOMA-IR decrease as compared to the control group (KKAy mice; [1]): (↓ 29%)
- Insulin (KKAy mice; [1]): 5.7 ± 0.5 ng/mL
- Liver TG (KKAy mice; [1]): 40 ± 8 mg/g
- Liver TG total (KKAy mice; [1]): 66 ± 13 mg/g
- Liver lipid (KKAy mice; [1]): 82 ± 9 mg/g
- Liver lipid total (KKAy mice; [1]): 137 ± 18 mg/g
- Liver weight (KKAy mice; [1]): 1.6 ± 0.1 g
- Liver weight % body weight (KKAy mice; [1]): 5.0 ± 0.2%
- Weight (pre-treatment) (KKAy mice; [1]): 35.3 ± 1.1 g
- Weight (termination) (KKAy mice; [1]): 33.0 ± 1.0 g
- Blood glucose (KKAy mice; 9000 nmol/kg/d ip): 480 mg/dL
- HOMA-IR (KKAy mice; 9000 nmol/kg/d ip): 213
- HOMA-IR decrease as compared to the control group (KKAy mice; 9000 nmol/kg/d ip): 9%
- Insulin (KKAy mice; 9000 nmol/kg/d ip): 7.0 ng/mL
- Liver TG total (KKAy mice; 9000 nmol/kg/d ip): 53 mg/g
- Liver lipid (KKAy mice; 9000 nmol/kg/d ip): 87 mg/g
- Liver lipid total (KKAy mice; 9000 nmol/kg/d ip): 143 mg/g
- Liver weight (KKAy mice; 9000 nmol/kg/d ip): 1.6 g
- Liver weight % body weight (KKAy mice; 9000 nmol/kg/d ip): 4.9%
- Weight (pre-treatment) (KKAy mice; 9000 nmol/kg/d ip): 35.6 g
- Weight (termination) (KKAy mice; 9000 nmol/kg/d ip): 33.1 g
- liver TG reduction as compared to the control group (KKAy mice; 9000 nmol/kg/d ip): 46%
- Liver TG (KKAy mice; 9000 nmol/kg/d ip, P < 0.05 vs control): 32 mg/g
- Liver TG (KKAy mice; 9000 nmol/kg/d ip, P < 0.05 vs control, listed as Enho-1): 32 ± 5 mg/g
- Blood glucose (KKAy mice; [2]): 480 ± 38 mg/dL
- HOMA-IR (KKAy mice; [2]): 213 ± 37
- HOMA-IR decrease as compared to the control group (KKAy mice; [2]): (↓ 9%)
- Insulin (KKAy mice; [2]): 7.0 ± 0.8 ng/mL
- Liver TG total (KKAy mice; [2]): 53 ± 11 mg/g
- Liver lipid (KKAy mice; [2]): 87 ± 6 mg/g
- Liver lipid total (KKAy mice; [2]): 143 ± 17 mg/g
- Liver weight (KKAy mice; [2]): 1.6 ± 0.1 g
- Liver weight % body weight (KKAy mice; [2]): 4.9 ± 0.3%
- Weight (pre-treatment) (KKAy mice; [2]): 35.6 ± 0.6 g
- Weight (termination) (KKAy mice; [2]): 33.1 ± 0.4 g
- TG (blood triglyceride level) (obese (ob/ob) mice; 90 nmol/kg/d ip): 19.4 mg/dL
- TG decrease in comparison with the control (obese (ob/ob) mice; 90 nmol/kg/d ip): 34%
- TG (blood triglyceride level) (obese (ob/ob) mice; [3]): 19.4 ± 2.2 mg/dL
- TG decrease in comparison with the control (obese (ob/ob) mice; [3]): (↓ 34%)
- TG (blood triglyceride level) (obese (ob/ob) mice; 900 nmol/kg/d ip): 18.4 mg/dL
- TG decrease in comparison with the control (obese (ob/ob) mice; 900 nmol/kg/d ip): 38%
- TG (blood triglyceride level) (obese (ob/ob) mice; [1]): 18.4 ± 2.3 mg/dL
- TG decrease in comparison with the control (obese (ob/ob) mice; [1]): (↓ 38%)
- TG (blood triglyceride level) (obese (ob/ob) mice; 9000 nmol/kg/d ip): 22.0 mg/dL
- TG decrease in comparison with the control (obese (ob/ob) mice; 9000 nmol/kg/d ip): 26%
- TG (blood triglyceride level) (obese (ob/ob) mice; [2]): 22.0 ± 2.2 mg/dL
- TG decrease in comparison with the control (obese (ob/ob) mice; [2]): (↓ 26%)
